Measured values from the nanobody polyreactivity screen of Harvey et al. (2022).

Experiment: yeast display, Sf9 membrane polyspecificity reagent, FACS + sequencing; frameworks hold sequencing errors
In short: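 Genes from sorted yeast were amplified by colony PCR, read by MiSeq 2 × 250 sequencing and filtered on CDR length. These cells carried a synthetic nanobody library in Saccharomyces cerevisiae BJ5465 and were sorted by FACS into low and high (top ~1%) gates on anti-HA and streptavidin fluorescence. Polyreactivity is labelled according to the gate of origin.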

| Sequence | polyreactivity (PSR sort gate) |
| --- | --- |
| QVQLQESGGGLVQAGGSLRQSYAASGYIFPSLAMGWYRQAPGKESEFVAAIGRGSTNNYADSVKGRFTISRDNAKNTAYQQMNSLKPEDTAVYYCAAAASPLTRHLYWGQGTQVTVSS | low polyreactivity |
| QVQLQESGGGLVQAGGSLRQSYAASGYIFPYLAMGWYRQAPGKEREFVAAIGRGSTNNYADSVKGRFTISRDNAKNTAYQQMNSLKPEDTAVYYCAGAASPLTRHLYWGQGNQVTVSS | low polyreactivity |
| QVQLQESGGGLVQAGGSLRRSCAASGSIFSHWAMGWYRQTPGKERELVASITAGGNTNYADSVKGRFTISRDNAKNTVYLPMDSLKPEDTAVYYCAADGYYGAWDLEYYYWGQGTQVTVSS | low polyreactivity |
| QVQLQESGGGLVQAGGSMRLSCAASGSISELRPMGWYRQAPCKQRELDAGISTGGSTNYADSVKGRFTISRDNAKNTVYLQMNSLKPEDTAVYYCASASYGEGTYDYWGQGTQVTVRS | high polyreactivity |
| QVQLQESGGGLVQAGGSPRLSCAASDNIFPDSVMCWYRQAPGKERELVATIGFGATTNYADSVKGRFTISRDNAKNTVYLQMNSLKPEDTAVYYCAADPLIYEYFCYWGQGSQVTVSS | low polyreactivity |
| QVQLQESGGGLVQAGGSQRLSCAASGYIFYFQYMGWYRQAPGKEREFVAAISDGANTNYADSVKGRFTISRDNAKNTEYLQMNSLKPEDTAVYYCAVYADEKYYYIYWGQGTQVTVSS | low polyreactivity |
| QVQLQESGGGLVQAGGTITLGYYMGWYRQAPGKEREFVAGIDTGAITYYADSVKGRFTNSRDNAKNTVYLQMNSLKPEDTAVYYCAAIQTHTYAHSYCGQGTQVTVSS | high polyreactivity |
| QVQLQESGGGLVQAGGTLRLSCAASGSIYDDTYMGWYRQAPGKERELVATIDSGSTTNYADSVKGRITISRDNAKKTVYLQMNSLKPEDTAVYYCAAADSHIDYFDYWGQGTQVTVSS | low polyreactivity |
| QVQLQESGGGLVQAGGTLRLSCAVSGTIFFPLDMGWYRQAPGREREYVAAIAEGTSTYYADSVKGRFTISRDNAKNTVFPQMYSLKPEDTAVYYCAAYRSTPQQFHYWGQGTQVTVSS | high polyreactivity |
| QVQLQESGGGLVQARGSLRLSCAASGYISHADEMGWYRQAPGKEHELVASFRNGGSTNYADSVKGRFTISRDNAKNTVYLQMNSLKSEDTAVYYCAAWTGQVDIHSYWCQGTQVTVSS | low polyreactivity |
| QVQLQESGGGLVQASGSIFHEPNMCWYRQAPGKERELVAGISSGANTYYADSVKGRFTISRDNAKNTVYLQMNSLKPEDTAVYHCAVVVHLYTELRYWGQDTQVTVSS | high polyreactivity |
| QVQLQESGGGLVQASGSLRLSCASSGNIFPDYVMAWYRLAPGKEREFVANITGGSTTNYADSVKGRFTISRDNAKNTVDLQMNSLTPEDTAVYYCAVNFGTVVLYLYWGQGTQVSVSS | high polyreactivity |
| QVQLQESGGGLVQEGGSLRLSCAASGNISPPADMGWYRPAPGKERELVASIGTGGTTNYADSVKGRFTISRDNAKNTVYLQMNSLKPDDTAVYYCAAVRYEYNPYDYWGQGTQVTVSS | low polyreactivity |
| QVQLQESGGGLVQEGGSLRLSCAASGNISPPADMGWYRQAHGKERELVASIGTGGTTNYADSVKGRFTISRDNAKNSVYLQMNSLKPDDTAVYYCAAVRYEYNPYDYWGQGTQVTVSS | low polyreactivity |
| QVQLQESGGGLVQEGGSLRLSCAASGNISPPADMGWYRQAPGKERELVASIGTGGTTNYADSVKGRFTISRDNAKNTVYLQMNSLQPDDTAVYYCAAVRYEYNPYDYWGQGTQVTVSS | low polyreactivity |
| QVQLQESGGGLVQEGGSLRLSCAASGTISQEDWMGWYRQAPGKEREFVAAIGLGSNTNYADSLKGRFTISRDNAKNTVYLQMNSLKPEDTAVYYCAVSVWQYSDHVYRGQGTQVTVSS | low polyreactivity |
| QVQLQESGGGLVQVGGSQRLSCAASGNIFYNYAMGWYRHAQGKEREFDATINHGTSINYADSVKGRFTISRDNAKNTVYLQMNSLKPEDTAVYYCAADLSWTDNLFYWGQGTQVTVIS | low polyreactivity |
| QVQLQESGGGLVQVGGSQRLSCAASGNIFYNYAMGWYRHAQGKEREFDATINHGTSINYADSVKGRFTISRDNAKNTVYLQMNSLKPEDTAVYYCAARVVRYGYKYYYWGQGTQVTLSS | low polyreactivity |
| QVQLQESGGGMVQAGGSLRLSCAASGSIFADVQMGWYRQAPGKVRELVASINFRGTTTYYADSVKGRFTISRDNAKNTVYLQMSSLKPEDTEVYYCAVGRSEGGDFAYWGQGTHVTVSS | low polyreactivity |
| QVQLQESGGGMVQAGGSLRLSCAASGYISWADYKGWYRQAPGKERELVAGIGYGSTTYYADSVKGRFTISRDNAINTAYLQMNSLKPEDTAVYYCAVGWYRDTAYKYWGHGTQVTVSS | low polyreactivity |
| QVQLQESGGGPVLAGCSLRLSCAASGTIFVRLDMGWYRQAPGKEREFVATIGSGSSTYYADSVKGSFTISRDNVKNTVYLQMNSLKQEDTAVYYCAVSAAEQSRHYYWDQGTQVTVSS | low polyreactivity |

| Sequence | polyreactivity (PSR sort gate) |
| --- | --- |
| QVQLQESGGGPVLAGGRLRLSCAASGTIFVRLDMGWYRQAPGKEREFVATIGSGSSTYYADSVKGSFTISRDNVKNTVFLQMNTLIPEDTAVYYCAVSAAEQSRHYYWDQGTQVTVSS | low polyreactivity |
| QVQLQESGGGPVLAGGSLRLSCEASGTIFVRLDMGWYRQAPGKEREFVATIGSGSSTYYADSVKGSFTISRDNVKNTVYLQMNSLKPEETAVYYCAVSAAEQSRHYYWDQGTQVTVSS | low polyreactivity |
| QVQLQESGGGQVLAGGSLRLSCAASGSISAQAYMGWDRQAPGKEREHVAGINYGDNTNYADSVKGRFTISRDNEHRVSADEQPVSGRYRGVLLRGFLELFYYYIYWGQGTQVNVSS | high polyreactivity |
| QVQLQESGGGQVQAGGSLRLSCAASGTIFLYAFKGWYRQAPGKERELVAAIDVGTTTNYADSVKGRFTISRDNAKNTVYLQMNSLKPEDTAVYYCAANLGYLDDLGYWGQGTQVTVSS | low polyreactivity |
| QVQLQESGGGQVQAGGSLRLSCAASGTIFLYAFMGWYRQAPGKERELVAAIDVGTTTNYADSVKGRFTISRDNAKNTGYLQMNSLKPEDTAVYYCAANLGYLEDLGYWGQGTQVTVSS | low polyreactivity |
| QVQLQESGGGQVQAGGSLRLSCAASGYISTHYFMGWYRQAPGKDREFVAGISNGSITNYADSVKGRFTISRDNARNTVYLQMNSLKPEDTAVYYGAAYEWTYVRFGYWGQGTQVTVSG | high polyreactivity |
| QVQLQESGGGQVQAGGTITLGYDMGWYRQAPGKEREFVAGIDTGAITYYADSVKGRFTNSRDNAKNTVYLQMNSLKPEDTAVYYCAAIQTHTYAHSYWGQGTQVTVSS | high polyreactivity |
| QVQLQESGGGVQAGGSLRLSCAASGSISAPILMGWYRQAPGKERELVAGIGGGANSYYADSVKGRFTVSRDNAKYTVYLQMNSLKPEATAVYYCAAGDYYWTNFGYWGQGTQVTASS | high polyreactivity |
| QVQLQESGGRLVQAGGSLRMSCAASGTIFSEANMGWYRQAPGKERELVATIGQGSTTNYADSVKGLFTISRDNAKNTVYLQMNSLKPEETAVYYCAVVTVDPVGFVYWGQGTQVTVSS | low polyreactivity |
| QVQLQESGGRQVQAGGSLRLSCAASGSNSYASGMGWYRQAPRKEREFVARIDPGAITNYADSVKGRFTISHDNAQNTVYLQMKSLKPEDNAVYYCAARVSTTDSRRILRKYLYYVHFDYWGQGTQLTVSS | high polyreactivity |
| QVQLQESGGSLVQAGGSLRLSCAASGNILVLPHGLVSPGAERELVATITGGSITYYADSVKGRFTISRDNAKNTVYLQMNSLKPGDTDVYYCAVINIYHRPHPYWGQGTLVTVSS | high polyreactivity |
| QVQLQESGRRPGAAGGSPRMSCAASGNIFWVAVMGRYRQAPGKERELVASIGFGCTTYYADSVKCRFTISRDNAKNTVYRQMISLKPEDTAVYYCAAPHYDWGELDYWGQGTQVPVSS | low polyreactivity |
| QVQLQESGRRPRAAGGSPRMSCAASGNIIWVAVMCRYRQAPVKERELVASIGFGCTTYYADSVKCRFTISRDNAKNTVYLQMISLIPEDTAVYYCAAPHYDWGELDFWGQGTQVPVSS | low polyreactivity |
| QVQLQESGSGLVQAGGSLRLSCAASGAIFPAYLMGWYRQAPGKERELVAGISYGSITYCADSVKGRFNISRDNAKNTVYLQMNSLKPEDTAVYYCAVWRPGVDEYYYWGQGTQVTVSS | low polyreactivity |
| QVQLQESRGCLVQAGGSLRLTCAASGTISDSGLMGWYRQAPGKERELVAGISSGGITNYADSVKGRFTLSRDNAKNSVYLQMNSLKPEDTAVYWGQGTQVTVSS | low polyreactivity |
| QVQLQESSGGLVQAGGSLRMSCAASGTIFHIHIMGRYRQAPGKEGEFVAAISYGTSTYYADSVKGRFTISRDNAKNTVYLQMNSQKPEDTAVYYCAVYDYLEVYFWYWGQGTQVTVSS | low polyreactivity |
| QVQLQESSGGLVQAGVCLQQSCAASGSIFTQHPMGRYRQAPANEREFVAAINVGSNTYYADSVKGRITISRDNAKNTVSLQMNILTPEDTAVSYCAATSIRWSVGYFRRDYWGQGTQVTVSS | low polyreactivity |
| QVQLQESVGGLVQAGGTQRLRCAASGNIFPTDRMGWYRQAPGKELEFVATISHGGSTNYADSVKGRFTISRDNAKNTVYLQMNSLKPEDTAVYYCAVWSLGRWRHYYWGQGTQVTVSS | low polyreactivity |
| QVQLQESVGGLVQASGSIFHVPNMGWYRQAPGNERELVAGLAGGGNTNYADIVKGRFTISRDNAKNTVYLQRNSLDTAVYYCAVVGFGRGTHIYWGQGTQVTVSS | high polyreactivity |
| QVQLQESVGGQVQAGGSLRLSCAASGTIFLYAFIGWYRQAPGKEPELVAAIDVGTTTNYADSVKGRFTISRDNAKNTVYLQMNSLKPEDTAVYYCAANLGYLDDLGYWGQGTQVTVSS | low polyreactivity |
| QVQLQESVGGQVQAGVSLRLICAASCTISQEDWMGWYRQAPAKEREFVAAIGLGSNTNYADSLKGRFTISRDNAKNTVDLQMNSLKPEDTAVYYCAVSVWQYSDHVYRGQGTQVTVSS | low polyreactivity |
